These binders were tested against CD3 (antibody antigen coated on the ELISA plate in Examples 1 to 3) (Homo sapiens (Human)) (UniProt P07766) (assay: ELISA, antigen coated, anti-human IgG-HRP; against wild-type anti-CD3 antibody).
Chain of CD3 (antibody antigen coated on the ELISA plate in Examples 1 to 3) (Homo sapiens (Human)) (P07766 23-126 limits assumed): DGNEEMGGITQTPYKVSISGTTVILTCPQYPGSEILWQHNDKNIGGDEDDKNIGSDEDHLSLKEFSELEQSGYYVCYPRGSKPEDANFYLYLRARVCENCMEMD

Binder | Binding strength of mutants (EC50 mutant/EC50 wild-type)
anti-CD3 antibody mutant VH-M34C (antibody, V domains shown) VH: EVQLVESGGGLVQPGGSLRLSCAASGFTFSTYACNWVRQAPGKGLEWVGRIRSKYNNYATYYADSVKDRFTISRDDSKNSLYLQMNSLKTEDTAVYYCARHGNFGNSYVSWFAYWGQGTLVTVSS VL: QTVVTQEPSLTVSPGGTVTLTCRSSTGAVTTSNYANWVQQKPGQAPRGLIGGTNKRAPGVPARFSGSLLGDKAALTLLGAQPEDEAEYFCALWYSNLWVFGGGTKLTVL | 1.1
anti-CD3 antibody mutant VH-W111C (antibody, V domains shown) VH: EVQLVESGGGLVQPGGSLRLSCAASGFTFSTYAMNWVRQAPGKGLEWVGRIRSKYNNYATYYADSVKDRFTISRDDSKNSLYLQMNSLKTEDTAVYYCARHGNFGNSYVSCFAYWGQGTLVTVSS VL: QTVVTQEPSLTVSPGGTVTLTCRSSTGAVTTSNYANWVQQKPGQAPRGLIGGTNKRAPGVPARFSGSLLGDKAALTLLGAQPEDEAEYFCALWYSNLWVFGGGTKLTVL | 2
anti-CD3 antibody mutant VH-S53C (antibody, V domains shown) VH: EVQLVESGGGLVQPGGSLRLSCAASGFTFSTYAMNWVRQAPGKGLEWVGRIRCKYNNYATYYADSVKDRFTISRDDSKNSLYLQMNSLKTEDTAVYYCARHGNFGNSYVSWFAYWGQGTLVTVSS VL: QTVVTQEPSLTVSPGGTVTLTCRSSTGAVTTSNYANWVQQKPGQAPRGLIGGTNKRAPGVPARFSGSLLGDKAALTLLGAQPEDEAEYFCALWYSNLWVFGGGTKLTVL | 1.2
anti-CD3 antibody mutant VH-Y61C (antibody, V domains shown) VH: EVQLVESGGGLVQPGGSLRLSCAASGFTFSTYAMNWVRQAPGKGLEWVGRIRSKYNNYATCYADSVKDRFTISRDDSKNSLYLQMNSLKTEDTAVYYCARHGNFGNSYVSWFAYWGQGTLVTVSS VL: QTVVTQEPSLTVSPGGTVTLTCRSSTGAVTTSNYANWVQQKPGQAPRGLIGGTNKRAPGVPARFSGSLLGDKAALTLLGAQPEDEAEYFCALWYSNLWVFGGGTKLTVL | 5.1
anti-CD3 antibody mutant VH-F104C (antibody, V domains shown) VH: EVQLVESGGGLVQPGGSLRLSCAASGFTFSTYAMNWVRQAPGKGLEWVGRIRSKYNNYATYYADSVKDRFTISRDDSKNSLYLQMNSLKTEDTAVYYCARHGNCGNSYVSWFAYWGQGTLVTVSS VL: QTVVTQEPSLTVSPGGTVTLTCRSSTGAVTTSNYANWVQQKPGQAPRGLIGGTNKRAPGVPARFSGSLLGDKAALTLLGAQPEDEAEYFCALWYSNLWVFGGGTKLTVL | 1
anti-CD3 antibody mutant VL-K55C (antibody, V domains shown) VH: EVQLVESGGGLVQPGGSLRLSCAASGFTFSTYAMNWVRQAPGKGLEWVGRIRSKYNNYATYYADSVKDRFTISRDDSKNSLYLQMNSLKTEDTAVYYCARHGNFGNSYVSWFAYWGQGTLVTVSS VL: QTVVTQEPSLTVSPGGTVTLTCRSSTGAVTTSNYANWVQQKPGQAPRGLIGGTNCRAPGVPARFSGSLLGDKAALTLLGAQPEDEAEYFCALWYSNLWVFGGGTKLTVL | 0.9

More lines, now with the values ahead:

Binding strength of mutants (EC50 mutant/EC50 wild-type) | Binder
1.8 | anti-CD3 antibody mutant VL-W93C (antibody, V domains shown) VH: EVQLVESGGGLVQPGGSLRLSCAASGFTFSTYAMNWVRQAPGKGLEWVGRIRSKYNNYATYYADSVKDRFTISRDDSKNSLYLQMNSLKTEDTAVYYCARHGNFGNSYVSWFAYWGQGTLVTVSS VL: QTVVTQEPSLTVSPGGTVTLTCRSSTGAVTTSNYANWVQQKPGQAPRGLIGGTNKRAPGVPARFSGSLLGDKAALTLLGAQPEDEAEYFCALCYSNLWVFGGGTKLTVL
1.2 | anti-CD3 antibody mutant VL-Y34C (antibody, V domains shown) VH: EVQLVESGGGLVQPGGSLRLSCAASGFTFSTYAMNWVRQAPGKGLEWVGRIRSKYNNYATYYADSVKDRFTISRDDSKNSLYLQMNSLKTEDTAVYYCARHGNFGNSYVSWFAYWGQGTLVTVSS VL: QTVVTQEPSLTVSPGGTVTLTCRSSTGAVTTSNCANWVQQKPGQAPRGLIGGTNKRAPGVPARFSGSLLGDKAALTLLGAQPEDEAEYFCALWYSNLWVFGGGTKLTVL
1 | anti-CD3 antibody mutant VL-N96C (antibody, V domains shown) VH: EVQLVESGGGLVQPGGSLRLSCAASGFTFSTYAMNWVRQAPGKGLEWVGRIRSKYNNYATYYADSVKDRFTISRDDSKNSLYLQMNSLKTEDTAVYYCARHGNFGNSYVSWFAYWGQGTLVTVSS VL: QTVVTQEPSLTVSPGGTVTLTCRSSTGAVTTSNYANWVQQKPGQAPRGLIGGTNKRAPGVPARFSGSLLGDKAALTLLGAQPEDEAEYFCALWYSCLWVFGGGTKLTVL
1.5 | anti-CD3 antibody mutant VL-R56C (antibody, V domains shown) VH: EVQLVESGGGLVQPGGSLRLSCAASGFTFSTYAMNWVRQAPGKGLEWVGRIRSKYNNYATYYADSVKDRFTISRDDSKNSLYLQMNSLKTEDTAVYYCARHGNFGNSYVSWFAYWGQGTLVTVSS VL: QTVVTQEPSLTVSPGGTVTLTCRSSTGAVTTSNYANWVQQKPGQAPRGLIGGTNKCAPGVPARFSGSLLGDKAALTLLGAQPEDEAEYFCALWYSNLWVFGGGTKLTVL
1 | anti-CD3 antibody mutant VL-Y94C (antibody, V domains shown) VH: EVQLVESGGGLVQPGGSLRLSCAASGFTFSTYAMNWVRQAPGKGLEWVGRIRSKYNNYATYYADSVKDRFTISRDDSKNSLYLQMNSLKTEDTAVYYCARHGNFGNSYVSWFAYWGQGTLVTVSS VL: QTVVTQEPSLTVSPGGTVTLTCRSSTGAVTTSNYANWVQQKPGQAPRGLIGGTNKRAPGVPARFSGSLLGDKAALTLLGAQPEDEAEYFCALWCSNLWVFGGGTKLTVL
1 | anti-CD3 antibody mutant VL-N54C (antibody, V domains shown) VH: EVQLVESGGGLVQPGGSLRLSCAASGFTFSTYAMNWVRQAPGKGLEWVGRIRSKYNNYATYYADSVKDRFTISRDDSKNSLYLQMNSLKTEDTAVYYCARHGNFGNSYVSWFAYWGQGTLVTVSS VL: QTVVTQEPSLTVSPGGTVTLTCRSSTGAVTTSNYANWVQQKPGQAPRGLIGGTCKRAPGVPARFSGSLLGDKAALTLLGAQPEDEAEYFCALWYSNLWVFGGGTKLTVL

Each binder was assayed against CD3 (antibody antigen coated on the ELISA plate in Examples 1 to 3) (Homo sapiens (Human)) (UniProt P07766) (assay: binding activity of the conjugated mutant compared with the wild-type antibody (ELISA as in Example 1)).

Binder | Blocking fold after conjugation (+20K) [fold]
anti-CD3 antibody mutant VL-K55C conjugated with Molecule I (+20K) (antibody, V domains shown, Molecule I (+20K, shown only as a drawing) conjugated on Cys 55) VH: EVQLVESGGGLVQPGGSLRLSCAASGFTFSTYAMNWVRQAPGKGLEWVGRIRSKYNNYATYYADSVKDRFTISRDDSKNSLYLQMNSLKTEDTAVYYCARHGNFGNSYVSWFAYWGQGTLVTVSS VL: QTVVTQEPSLTVSPGGTVTLTCRSSTGAVTTSNYANWVQQKPGQAPRGLIGGTNCRAPGVPARFSGSLLGDKAALTLLGAQPEDEAEYFCALWYSNLWVFGGGTKLTVL | 5
anti-CD3 antibody mutant VH-W111C conjugated with Molecule I (+20K) (antibody, V domains shown, Molecule I (+20K, shown only as a drawing) conjugated on Cys 111) VH: EVQLVESGGGLVQPGGSLRLSCAASGFTFSTYAMNWVRQAPGKGLEWVGRIRSKYNNYATYYADSVKDRFTISRDDSKNSLYLQMNSLKTEDTAVYYCARHGNFGNSYVSCFAYWGQGTLVTVSS VL: QTVVTQEPSLTVSPGGTVTLTCRSSTGAVTTSNYANWVQQKPGQAPRGLIGGTNKRAPGVPARFSGSLLGDKAALTLLGAQPEDEAEYFCALWYSNLWVFGGGTKLTVL | 6
anti-CD3 antibody mutant VH-S53C conjugated with Molecule I (+20K) (antibody, V domains shown, Molecule I (+20K, shown only as a drawing) conjugated on Cys 53) VH: EVQLVESGGGLVQPGGSLRLSCAASGFTFSTYAMNWVRQAPGKGLEWVGRIRCKYNNYATYYADSVKDRFTISRDDSKNSLYLQMNSLKTEDTAVYYCARHGNFGNSYVSWFAYWGQGTLVTVSS VL: QTVVTQEPSLTVSPGGTVTLTCRSSTGAVTTSNYANWVQQKPGQAPRGLIGGTNKRAPGVPARFSGSLLGDKAALTLLGAQPEDEAEYFCALWYSNLWVFGGGTKLTVL | 3
anti-CD3 antibody mutant VH-M34C conjugated with Molecule I (+20K) (antibody, V domains shown, Molecule I (+20K, shown only as a drawing) conjugated on Cys 34) VH: EVQLVESGGGLVQPGGSLRLSCAASGFTFSTYACNWVRQAPGKGLEWVGRIRSKYNNYATYYADSVKDRFTISRDDSKNSLYLQMNSLKTEDTAVYYCARHGNFGNSYVSWFAYWGQGTLVTVSS VL: QTVVTQEPSLTVSPGGTVTLTCRSSTGAVTTSNYANWVQQKPGQAPRGLIGGTNKRAPGVPARFSGSLLGDKAALTLLGAQPEDEAEYFCALWYSNLWVFGGGTKLTVL | 5
anti-CD3 antibody mutant VH-F104C conjugated with Molecule I (+20K) (antibody, V domains shown, Molecule I (+20K, shown only as a drawing) conjugated on Cys 104) VH: EVQLVESGGGLVQPGGSLRLSCAASGFTFSTYAMNWVRQAPGKGLEWVGRIRSKYNNYATYYADSVKDRFTISRDDSKNSLYLQMNSLKTEDTAVYYCARHGNCGNSYVSWFAYWGQGTLVTVSS VL: QTVVTQEPSLTVSPGGTVTLTCRSSTGAVTTSNYANWVQQKPGQAPRGLIGGTNKRAPGVPARFSGSLLGDKAALTLLGAQPEDEAEYFCALWYSNLWVFGGGTKLTVL | 13

Second part, the binder after the results:

Blocking fold after conjugation (+20K) [fold] | Binder
12 | anti-CD3 antibody mutant VL-N54C conjugated with Molecule I (+20K) (antibody, V domains shown, Molecule I (+20K, shown only as a drawing) conjugated on Cys 54) VH: EVQLVESGGGLVQPGGSLRLSCAASGFTFSTYAMNWVRQAPGKGLEWVGRIRSKYNNYATYYADSVKDRFTISRDDSKNSLYLQMNSLKTEDTAVYYCARHGNFGNSYVSWFAYWGQGTLVTVSS VL: QTVVTQEPSLTVSPGGTVTLTCRSSTGAVTTSNYANWVQQKPGQAPRGLIGGTCKRAPGVPARFSGSLLGDKAALTLLGAQPEDEAEYFCALWYSNLWVFGGGTKLTVL
8 | anti-CD3 antibody mutant VL-Y34C conjugated with Molecule I (+20K) (antibody, V domains shown, Molecule I (+20K, shown only as a drawing) conjugated on Cys 34) VH: EVQLVESGGGLVQPGGSLRLSCAASGFTFSTYAMNWVRQAPGKGLEWVGRIRSKYNNYATYYADSVKDRFTISRDDSKNSLYLQMNSLKTEDTAVYYCARHGNFGNSYVSWFAYWGQGTLVTVSS VL: QTVVTQEPSLTVSPGGTVTLTCRSSTGAVTTSNCANWVQQKPGQAPRGLIGGTNKRAPGVPARFSGSLLGDKAALTLLGAQPEDEAEYFCALWYSNLWVFGGGTKLTVL
6 | anti-CD3 antibody mutant VL-R56C conjugated with Molecule I (+20K) (antibody, V domains shown, Molecule I (+20K, shown only as a drawing) conjugated on Cys 56) VH: EVQLVESGGGLVQPGGSLRLSCAASGFTFSTYAMNWVRQAPGKGLEWVGRIRSKYNNYATYYADSVKDRFTISRDDSKNSLYLQMNSLKTEDTAVYYCARHGNFGNSYVSWFAYWGQGTLVTVSS VL: QTVVTQEPSLTVSPGGTVTLTCRSSTGAVTTSNYANWVQQKPGQAPRGLIGGTNKCAPGVPARFSGSLLGDKAALTLLGAQPEDEAEYFCALWYSNLWVFGGGTKLTVL
